Measured values as given in paper PMC5434896, “Inhibition of PDE5A1 guanosine cyclic monophosphate (cGMP) hydrolysing activity by sildenafil analogues that inhibit cellular cGMP efflux” (The Journal of Pharmacy and Pharmacology, 2017).

System: [H][C@@]12COP(=O)(O)O[C@@]1([H])[C@@H](O)[C@H](n1cnc3c(=O)[nH]c(N)nc31)O2
Test: [3H]-cGMP hydrolysis, snake venom nucleotidase, anion-exchange separation
Format: biochemical, Homo sapiens
Details: [3H]-cGMP mixed with unlabelled cGMP […], […] MgCl2, pH […]

PDE5A1 (Homo sapiens)
Km: 1.7 ± 0.4 µM
